Results as given in the supplement of paper PMC9112550, “Optimization of the antimicrobial peptide Bac7 by deep mutational scanning” (BMC Biology, 2022).

System: Escherichia coli TOP10
Experiment: shrunken log2 fold change of peptide-encoding DNA abundance (4.5 h post-induction vs induction); higher = less antimicrobial activity (less host growth inhibition)
Conditions: time post-induction: 4.5 h; library: site-saturation at positions 5, 18, 19, 20
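Note: peptides expressed intracellularly from a pBAD plasmid library in pooled LB shake-flask culture, induced with 0.3% L-arabinose, DNA abundance read by NGS, three biological replicates, DESeq2 with apeglm shrinkage.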

Row | Sequence | shrunken log2 fold change
1 | RRIRDRPPRLPRPRPRPGPSPRP | -0.0742
2 | RRIRRRPPRLPRPRPRPTGHPRP | 0.236
3 | RRIRWRPPRLPRPRPRPSCLPRP | -0.0337
4 | RRIRRRPPRLPRPRPRPGLCPRP | 0.457
5 | RRIRSRPPRLPRPRPRPSHPPRP | -0.277
6 | RRIRERPPRLPRPRPRPIRWPRP | -0.0251
7 | RRIRARPPRLPRPRPRPGDHPRP | 0.114
8 | RRIRDRPPRLPRPRPRPFILPRP | -0.293
9 | RRIRPRPPRLPRPRPRPNKTPRP | -0.0733
10 | RRIRNRPPRLPRPRPRPGYEPRP | 0.0608
11 | RRIRYRPPRLPRPRPRPKWHPRP | -0.358
12 | RRIRSRPPRLPRPRPRPLETPRP | -0.122
13 | RRIRYRPPRLPRPRPRPVWVPRP | 0.127
14 | RRIRWRPPRLPRPRPRPAIGPRP | 0.0325
15 | RRIRQRPPRLPRPRPRPAVPPRP | -0.0193
16 | RRIRRRPPRLPRPRPRPMAVPRP | -0.165
17 | RRIRQRPPRLPRPRPRPPMMPRP | 0.154
18 | RRIRDRPPRLPRPRPRPECAPRP | 1.58
19 | RRIRTRPPRLPRPRPRPEQMPRP | 0.233
20 | RRIRFRPPRLPRPRPRPFSAPRP | -0.274
21 | RRIRLRPPRLPRPRPRPRMNPRP | 0.179
22 | RRIRERPPRLPRPRPRPYLMPRP | -0.696

Row | Sequence | shrunken log2 fold change
23 | RRIRTRPPRLPRPRPRPMGYPRP | 0.0627
24 | RRIRMRPPRLPRPRPRPVVDPRP | 0.0138
25 | RRIRRRPPRLPRPRPRPKCIPRP | -0.019
26 | RRIRRRPPRLPRPRPRPPTEPRP | 0.315
27 | RRIRHRPPRLPRPRPRPWWPPRP | -0.0995
28 | RRIRTRPPRLPRPRPRPLHLPRP | 0.053
29 | RRIRPRPPRLPRPRPRPARQPRP | 0.253
30 | RRIRYRPPRLPRPRPRPRDGPRP | -0.0431
31 | RRIRRRPPRLPRPRPRPHGDPRP | 0.0543
32 | RRIRNRPPRLPRPRPRPPDQPRP | 0.184
33 | RRIRERPPRLPRPRPRPPEKPRP | -0.0038
34 | RRIRIRPPRLPRPRPRPKDIPRP | -1.25
35 | RRIRNRPPRLPRPRPRPLKAPRP | -0.0472
36 | RRIRSRPPRLPRPRPRPYNFPRP | -0.36
37 | RRIRNRPPRLPRPRPRPNWRPRP | 0.216
38 | RRIRSRPPRLPRPRPRPTPHPRP | 0.308
39 | RRIRFRPPRLPRPRPRPRWRPRP | 0.382
40 | RRIRLRPPRLPRPRPRPPTRPRP | 0.677
41 | RRIRIRPPRLPRPRPRPMVYPRP | -0.136
42 | RRIRMRPPRLPRPRPRPWCSPRP | -0.075
43 | RRIRHRPPRLPRPRPRPHNNPRP | -0.714
44 | RRIRLRPPRLPRPRPRPKSQPRP | 0.00795

Row | Sequence | shrunken log2 fold change
45 | RRIRSRPPRLPRPRPRPEHTPRP | 0.262
46 | RRIRIRPPRLPRPRPRPPFMPRP | -0.256
47 | RRIRIRPPRLPRPRPRPGYAPRP | -0.192
48 | RRIRYRPPRLPRPRPRPHAVPRP | -0.4
49 | RRIRHRPPRLPRPRPRPYHKPRP | -0.412
50 | RRIRPRPPRLPRPRPRPCANPRP | 0.0366
51 | RRIRIRPPRLPRPRPRPNFAPRP | 0.0322
52 | RRIRDRPPRLPRPRPRPILDPRP | 0.0609
53 | RRIRERPPRLPRPRPRPWVLPRP | -0.0134
54 | RRIRWRPPRLPRPRPRPLKPPRP | 0.0915
55 | RRIRERPPRLPRPRPRPMMLPRP | -0.0415
56 | RRIRVRPPRLPRPRPRPAMTPRP | 0.0589
57 | RRIRVRPPRLPRPRPRPDPAPRP | 0.142
58 | RRIRQRPPRLPRPRPRPVPRPRP | 0.829
59 | RRIRNRPPRLPRPRPRPVWSPRP | 0.0637
60 | RRIRRRPPRLPRPRPRPNAYPRP | 0.0409
61 | RRIRERPPRLPRPRPRPFETPRP | 0.21
62 | RRIRARPPRLPRPRPRPPVFPRP | 0.416
63 | RRIRERPPRLPRPRPRPARSPRP | 0.0919
64 | RRIRYRPPRLPRPRPRPSMPPRP | -1.69
65 | RRIRCRPPRLPRPRPRPPWEPRP | -0.0369
66 | RRIRYRPPRLPRPRPRPPFMPRP | -0.422
